Laboratory results reported in patent US20260174888A1 (ARARIS BIOTECH, published 2026).
Where two headings read alike, the source gives them in different places.

Assays:
CEACAM-5 [1] = target: T1, CEACAM-5 (UniProt P06731 35-702, limits assumed); experiment: cell-based or functional assay
T1 sequence (looked up): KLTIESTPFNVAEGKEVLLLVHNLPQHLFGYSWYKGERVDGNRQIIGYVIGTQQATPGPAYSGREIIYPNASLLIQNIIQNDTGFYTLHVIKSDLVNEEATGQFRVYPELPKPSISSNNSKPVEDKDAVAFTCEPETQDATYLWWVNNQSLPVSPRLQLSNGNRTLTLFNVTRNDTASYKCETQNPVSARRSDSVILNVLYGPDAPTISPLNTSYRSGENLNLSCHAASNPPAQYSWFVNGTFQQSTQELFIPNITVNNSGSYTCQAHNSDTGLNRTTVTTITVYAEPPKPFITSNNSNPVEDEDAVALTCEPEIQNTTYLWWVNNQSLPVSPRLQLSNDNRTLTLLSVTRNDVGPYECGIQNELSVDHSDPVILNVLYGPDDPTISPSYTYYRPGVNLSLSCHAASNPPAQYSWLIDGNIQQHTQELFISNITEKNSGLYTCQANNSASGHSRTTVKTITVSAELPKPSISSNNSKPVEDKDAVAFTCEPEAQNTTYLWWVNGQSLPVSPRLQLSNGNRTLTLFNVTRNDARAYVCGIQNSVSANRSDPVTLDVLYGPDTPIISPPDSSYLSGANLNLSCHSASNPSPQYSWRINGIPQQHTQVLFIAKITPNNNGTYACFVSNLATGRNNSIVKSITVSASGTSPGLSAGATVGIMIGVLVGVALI

CEACAM-5 [2] = target: T1, CEACAM-5; experiment: cell-based or functional assay; remark: listed apart in the source

Row | Binder | IC50 (nM), cytotoxicity on NCI-H2110 cells, CellTiterGlo viability, 96 hours (CEACAM-5 [1]) | IC50 (nM), cytotoxicity on NCI-H2110 cells, CellTiterGlo viability, 96 hours (CEACAM-5 [2])
1 | ARA-20-RKAA-PABC-MMAE (antibody, human IgG1, kappa, V domains shown, linker-payload RKAA-PABC-MMAE (FIG. 6) conjugated by MTG to the native, glycosylated antibody; conjugated residue not stated in the example) VH: EVQLVESGGGVVQPGRSLRLSCSASGFDFTTYWMSWVRQAPGKGLEWIGEIHPDSSTINYAPSLKDRFTISRDNAKNTLFLQMDSLRPEDTGVYFCASLYFGFPWFAYWGQGTPVTVSS VL: DIQLTQSPSSLSASVGDRVTITCKASQDVGTSVAWYQQKPGKAPKLLIYWTSTRHTGVPSRFSGSGSGTDFTFTISSLQPEDIATYYCQQYSLYRSFGQGTKVEIKR | 30.2 nM | 
2 | ARA-20-FA-PEG12-RKAA-PABC-MMAE (antibody, human IgG1, kappa, V domains shown, linker-payload FA-PEG12-RKAA-PABC-MMAE (FIG. 4) conjugated by MTG to the native, glycosylated antibody; conjugated residue not stated in the example) VH: EVQLVESGGGVVQPGRSLRLSCSASGFDFTTYWMSWVRQAPGKGLEWIGEIHPDSSTINYAPSLKDRFTISRDNAKNTLFLQMDSLRPEDTGVYFCASLYFGFPWFAYWGQGTPVTVSS VL: DIQLTQSPSSLSASVGDRVTITCKASQDVGTSVAWYQQKPGKAPKLLIYWTSTRHTGVPSRFSGSGSGTDFTFTISSLQPEDIATYYCQQYSLYRSFGQGTKVEIKR | 4.68 nM | 
3 | ARA-20-FA-PEG24-RKAA-PABC-MMAE (antibody, human IgG1, kappa, V domains shown, linker-payload FA-PEG24-RKAA-PABC-MMAE (FIG. 3) conjugated by MTG to the native, glycosylated antibody; conjugated residue not stated in the example) VH: EVQLVESGGGVVQPGRSLRLSCSASGFDFTTYWMSWVRQAPGKGLEWIGEIHPDSSTINYAPSLKDRFTISRDNAKNTLFLQMDSLRPEDTGVYFCASLYFGFPWFAYWGQGTPVTVSS VL: DIQLTQSPSSLSASVGDRVTITCKASQDVGTSVAWYQQKPGKAPKLLIYWTSTRHTGVPSRFSGSGSGTDFTFTISSLQPEDIATYYCQQYSLYRSFGQGTKVEIKR | 5.93 nM | 
4 | ARA-20-ARK-PABC-MMAE (antibody, human IgG1, kappa, V domains shown, linker-payload ARK-PABC-MMAE conjugated by MTG to the native, glycosylated antibody; conjugated residue not stated in the example) VH: EVQLVESGGGVVQPGRSLRLSCSASGFDFTTYWMSWVRQAPGKGLEWIGEIHPDSSTINYAPSLKDRFTISRDNAKNTLFLQMDSLRPEDTGVYFCASLYFGFPWFAYWGQGTPVTVSS VL: DIQLTQSPSSLSASVGDRVTITCKASQDVGTSVAWYQQKPGKAPKLLIYWTSTRHTGVPSRFSGSGSGTDFTFTISSLQPEDIATYYCQQYSLYRSFGQGTKVEIKR |  | 58 nM
5 | ARA-20-FA-PEG12-ARK-PABC-MMAE (antibody, human IgG1, kappa, V domains shown, linker-payload FA-PEG12-ARK-PABC-MMAE (FIG. 5) conjugated by MTG to the native, glycosylated antibody; conjugated residue not stated in the example) VH: EVQLVESGGGVVQPGRSLRLSCSASGFDFTTYWMSWVRQAPGKGLEWIGEIHPDSSTINYAPSLKDRFTISRDNAKNTLFLQMDSLRPEDTGVYFCASLYFGFPWFAYWGQGTPVTVSS VL: DIQLTQSPSSLSASVGDRVTITCKASQDVGTSVAWYQQKPGKAPKLLIYWTSTRHTGVPSRFSGSGSGTDFTFTISSLQPEDIATYYCQQYSLYRSFGQGTKVEIKR |  | 27.8 nM
